{"source": "paper PMC4388176", "binders": {"B1": {"name": "Ter3 26-mer (crystal) (dsDNA)", "DNA 1": "GTAAAAGGTAAGGGTAATGCACTTTT", "DNA 2": "CAAAAGTGCATTACCCTTACCTTTTA"}}, "target": "T1, Reb1 (146-504) (Schizosaccharomyces pombe, UniProt Q9P6H9)", "T1 sequence": "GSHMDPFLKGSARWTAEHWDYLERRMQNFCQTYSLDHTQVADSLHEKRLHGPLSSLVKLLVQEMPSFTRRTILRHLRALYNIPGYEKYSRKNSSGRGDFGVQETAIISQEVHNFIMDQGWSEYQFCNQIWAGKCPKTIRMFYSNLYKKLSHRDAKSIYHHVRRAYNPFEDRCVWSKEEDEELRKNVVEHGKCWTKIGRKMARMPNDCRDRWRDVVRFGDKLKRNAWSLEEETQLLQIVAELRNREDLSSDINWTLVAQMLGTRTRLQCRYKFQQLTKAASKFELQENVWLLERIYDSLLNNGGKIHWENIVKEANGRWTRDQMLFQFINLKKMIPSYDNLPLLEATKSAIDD", "assay": "X-ray crystallography", "data": [{"binder": "B1", "values": [{"measurement": "binding result", "result": "binds"}]}]}
